± gives the standard deviation of the averaged measurements.
Tests used:
[1] = system: VchCAST RNA-guided transposition machinery (E. coli BL21(DE3) host, lacZ target); assay: relative integration efficiency (T-RL orientation) vs wild-type transposon end (log2 (normalized fold change)); transposon end mutated: right end (5 bp flank + 75 bp right end); higher = more efficient transposition
Procedure, shortened: (§1)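 Pools of 1549 left-end or 1849 right-end barcoded transposon variants were cloned into a pUC57 mini-transposon donor and co-transformed into E. coli BL21(DE3) with a T7-driven effector plasmid carrying a CRISPR array, tniQ-cas8-cas7-cas6 and tnsA-tnsB-tnsC. Plating used 0.1 mM IPTG at 37°C for 18 h, and input plasmids and genomic integration junctions were PCR-amplified for Illumina sequencing, with two biological output replicates and four reference barcodes. Relative integration efficiency is the log-transformed fold change of output over input barcode abundance, normalised to the reference barcodes.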

[2] = system: VchCAST RNA-guided transposition machinery (E. coli BL21(DE3) host, lacZ target); assay: relative integration efficiency (T-LR orientation) vs wild-type transposon end (log2 (normalized fold change)); transposon end mutated: right end (5 bp flank + 75 bp right end); higher = more efficient transposition
Procedure, shortened: as §1

| Sequence | relative integration efficiency (log2) [1] | relative integration efficiency (log2) [2] |
| --- | --- | --- |
| ACTATTGTTGATACAACCATAAAATGATAATTACACCCATAAATTGATAATTATCACACCCATAAATTGATATTGCCTCTGATCATAGTCAGACCAACATTGCTACGACCCGTATTCGCACCGACAC | 0.151 ± 0.07 | 0.436 ± 0.12 |
| AGTAATGTTGATACAACCATAAAATGATAATTACACCCATAAATTGATAATTATCACACCCATAAATTGATATTGCCTCTGATCATAGTCAGACCAACATTGCTACGACCCGTATTCGCACCGACAC | -0.121 ± 0.05 | -0.0802 ± 0.26 |
| AGTTTTGTTGATACAACCATAAAATGATAATTACACCCATAAATTGATAATTATCACACCCATAAATTGATATTGCCTCTGATCATAGTCAGACCAACATTGCTACGACCCGTATTCGCACCGACAC | 0.00539 ± 0.033 | 0.122 ± 0.29 |
| CAAAATGTAAAAAAAACCATACGTTGATTTTACCACCCATAAATTGATAATTAAAACAACCATACCTTGAAATTGCTTATAAAGTGTACAACACTTGAGAAAGTTTACTACAGGTATGCACCGACAC | -4.977 ± 0.011 | -2.89 ± 0.71 |
| CAAAATGTAAAAAAAACCATACGTTGATTTTACGAAACCATACGCTGAAATAAAAACAACCATACCTTGAAATTGCTTATGATCATAGTCAGACCAACATTGCTACGACCCGTATTCGCACCGACAC | -6.15 ± 0.21 | -4.98 ± 2.3 |
| CAAAATGTAAAAAAAACCATACGTTGATTTTACGAAACCATACGCTGAAATAAAAACACCCATAAATTGATATTGCTTATAAAGTGTACAACACTTGAGAAAGTTTACTACAGGTATGCACCGACAC | -8.17 ± 0.95 | < -10 |
| CAAAATGTAAAAAAAACCATACGTTGATTTTACGAAACCATACGCTGAAATAATCACAACCATACCTTGAAATTGCTTATAAAGTGTACAACACTTGAGAAAGTTTACTACAGGTATGCACCGACAC | < -10 | < -10 |
| CAAAATGTAAAAACAACCATAAAATGATAATTAGAAACCATACGCTGAAATAAAAACAACCATACCTTGAAATTGCTTATAAAGTGTACAACACTTGAGAAAGTTTACTACAGGTATGCACCGACAC | -0.449 ± 0.47 | 2.48 ± 0.26 |
| CAAAATGTTGATACAACCATAAAATGATAATTACACCCATAAATTGATAATTATCACACCCATAAATTGATATTGCCTCTGATCATAGTCAGACCAACATTGCTACGACCCGTATTCGCACCGACAC | -0.331 ± 0.081 | -0.0192 ± 0.23 |
| CAATTTGTTGATACAACCATAAAATGATAATTACACCCATAAATTGATAATTATCACACCCATAAATTGATATTGCCTCTGATCATAGTCAGACCAACATTGCTACGACCCGTATTCGCACCGACAC | -0.1076 ± 0.00032 | 0.164 ± 0.0064 |
| CACGGTGTTGATACAACCATAAAATGATAATTACACCCATAAATTGATAATTATCACACCCATAAATTGATATTGCCTCTGATCATAGTCAGACCAACATTGCTACGACCCGTATTCGCACCGACAC | -0.141 ± 0.051 | 0.107 ± 0.15 |
| CACGTTGTTGATACAACCATAAAATGATAATTACACCCATAAATTGATAATTATCACACCCATAAATTGATATTGCCTCTGATCATAGTCAGACCAACATTGCTACGACCCGTATTCGCACCGACAC | -0.27 ± 0.091 | 0.451 ± 0.3 |
| CGCGCTGTTGATACAACCATAAAATGATAATTACACCCATAAATTGATAATTATCACACCCATAAATTGATATTGCCTCTGATCATAGTCAGACCAACATTGCTACGACCCGTATTCGCACCGACAC | 0.101 ± 0.1 | 0.747 ± 0.2 |
| TATAATGTTGATACAACCATAAAATGATAATTACACCCATAAATTGATAATTATCACACCCATAAATTGATATTGCCTCTGATCATAGTCAGACCAACATTGCTACGACCCGTATTCGCACCGACAC | -0.277 ± 0.026 | -0.134 ± 0.48 |
| TGATTTGTTGATACAACCATAAAATGATAATTACACCCATAAATTGATAATTATCACACCCATAAATTGATATTGCCTCTGATCATAGTCAGACCAACATTGCTACGACCCGTATTCGCACCGACAC | 0.00782 ± 0.012 | 0.163 ± 0.18 |
